According to patent US10294520B2, “Nicotiana nucleic acid molecules and uses thereof” (U.S. Smokeless Tobacco Company LLC, priority 2004, dated 2019):
Positions count from the first letter of the chain named.

T1: tobacco nicotine demethylase (D121-AA8) (Nicotiana tabacum, UniProt Q38Q87)
T1 sequence (Q38Q87 with tags, fused parts or gaps): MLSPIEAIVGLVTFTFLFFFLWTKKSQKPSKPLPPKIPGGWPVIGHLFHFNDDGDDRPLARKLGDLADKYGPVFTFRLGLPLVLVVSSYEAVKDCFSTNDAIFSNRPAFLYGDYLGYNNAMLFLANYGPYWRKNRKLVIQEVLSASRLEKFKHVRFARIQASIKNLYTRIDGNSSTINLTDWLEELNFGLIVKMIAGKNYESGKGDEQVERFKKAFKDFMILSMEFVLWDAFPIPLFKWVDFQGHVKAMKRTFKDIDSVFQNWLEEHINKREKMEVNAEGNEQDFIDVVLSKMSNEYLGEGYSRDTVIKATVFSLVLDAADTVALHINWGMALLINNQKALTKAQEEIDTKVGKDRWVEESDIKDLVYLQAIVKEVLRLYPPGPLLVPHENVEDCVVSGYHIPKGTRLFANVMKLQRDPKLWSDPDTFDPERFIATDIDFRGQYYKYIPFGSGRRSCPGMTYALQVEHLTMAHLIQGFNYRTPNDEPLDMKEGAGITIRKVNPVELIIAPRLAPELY

T2: nicotine demethylase activity in the transformed yeast cells (Nicotiana tabacum, UniProt Q38Q87)
T2 construct: expressed in transfected cells; host or cells: Saccharomyces cerevisiae WAT11 transformed with pYeDP60-p450 cDNA plasmid, galactose-induced culture
T2 sequence (Q38Q87 with tags, fused parts or gaps): T1 sequence (Q38Q87 with tags, fused parts or gaps)

B1: D208-AD9: test p450 from a full-length tobacco clone, expressed in yeast (protein, listed as Nicotiana tabacum)
chain: T1 sequence (Q38Q87 with tags, fused parts or gaps) with I163M, K309E, G353C, S452P
B2: Control (CYP71D20): a p450 catalyzing the hydroxylation of 5-epi-aristolochene and 1-deoxycapsidiol in Nicotiana tabacum, used as control (protein, UniProt Q94FM7 1-504, looked up)
5-epiaristolochene …: MQFFSLVSIFLFLSFLFLLRKWKNSNSQSKKLPPGPWKIPILGSMLHMIGGEPHHVLRDLAKKYGPLMHLQLGEISAVVVTSRDMAKEVLKTHDVVFASRPKIVAMDIICYNQSDIAFSPYGDHWRQMRKICVMELLNAKNVRSFSSIRRDEVVRLIDSIRSDSSSGELVNFTQRIIWFASSMTCRSAFGQVLKGQDIFAKKIREVIGLAEGFDVVDIFPTYKFLHVLSGMKRKLLNAHLKVDAIVEDVINEHKKNLAAGKSNGALGGEDLIDVLLRLMNDTSLQFPITNDNIKAVIVDMFAAGTETSSTTTVWAMAEMMKNPSVFTKAQAEVREAFRDKVSFDENDVEELKYLKLVIKETLRLHPPSPLLVPRECREDTDINGYTIPAKTKVMVNVWALGRDPKYWDDAESFKPERFEQCSVDFFGNNFEFLPFGGGRRICPGMSFGLANLYLPLAQLLYHFDWKLPTGIMPRDLDLTELSGITIARKGGLYLNATPYQPSRE

Legend:
[1] = biological target: T1, tobacco nicotine demethylase (D121-AA8); experiment: Nicotine demethylase activity assay with yeast microsomal preparations; settings: for nornicotine produced from the demethylation of nicotine (HPLC and LSC): microsomal samples from yeast cells expressing the p450
Method: After induction by galactose for 20 hours, yeast cells were collected by centrifugation and washed twice with TES-M buffer (50 mM Tris-HCl, pH 7.5, 1 mM EDTA, 0.6 M sorbitol, 10 mM 2-mercaptoethanol). The pellet was resuspended in extraction buffer (50 mM Tris-HCl, pH 7.5, 1 mM EDTA, 0.6 M sorbitol, 2 mM 2-mercaptoethanol, 1% bovine serum album, Protease Inhibitor Cocktail (Roche) at 1 tablet/50 ml). Cells were then broken with glass beads (0.5 mm in diameter, Sigma) and the cell extract was centrifuged for 20 min at 20,000×g to remove cellular debris. The supernatant was subjected to ultracentrifugation at 100,000×g for 60 min and the resultant pellet contained the microsomal fraction. The microsomal fraction was suspended in TEG-M buffer (50 mM Tris-HCl, pH 7.5, 1 mM EDTA, 20% glycerol and 1.5 mM 2-mercaptoethanol) at protein concentration of 1 mg/mL. Microsomal preparations were stored in a liquid nitrogen freezer until use.
Nicotine demethylase activity assays with yeast microsomal preparations were performed. […] Chlorpromazine (CPZ) and oxidized cytochrome c (cyt. C), both P450 inhibitors, were purchased from Sigma. […] NADPH was omitted for control incubation. The routine enzyme assay included microsomal proteins (around 1 mglrnl), 6 mM NADPH, and 55 μM ^14C labeled nicotine. […] C, when used, was 1 mM and 100 μM, respectively. The reaction was carried at 25° C. for 1 hour and was stopped with the addition of 300 μM methanol to each 25 μl reaction mixture. After centrifugation, 20 μl of the methanol extract was separated with a reverse-phase High Performance Liquid Chromatography (HPLC) system (Agilent) using an Inertsil ODS-3 3μ (150×4.6 mm) chromatography column from Varian. The isocratic mobile phase was the mixture of methanol and 50 mM potassium phosphate buffer, pH 6.25, with ratio of 60:40 (v/v) and the flow rate was 1 ml/min. The nornicotine peak, as determined by comparison with authentic non-labeled nornicotine, was collected and subjected to 2900 tri-carb Liquid ScintlDation Counter (LSC) (Perkin Elmer) for quantification. The activity of nicotine demethylase is calculated based on the production of ^14C labeled nornicotine over 1 hour incubation.

[2] = biological target: T2, nicotine demethylase activity in the transformed yeast cells; experiment: In vivo enzyme assay: feeding transformed yeast culture with 14C labeled nicotine; format: cell-based; settings: WAT11 yeast, galactose-induced culture, 55 μM 14C nicotine, 6 hours
Method: Single yeast colonies were used to inoculate 30 mL SGI media (5 g/L bactocasamino acids, 6.7 g/L yeast nitrogen base without amino acids, 20 g/L glucose, 40 mg/L DL-tryptophan) and grown at 30° C. for about 24 hours. An aliquot of this culture was diluted 1:50 into 1000 mL of YPGE media (10 g/L yeast extract, 20 g/L bacto peptone, 5 g/L glucose, 30 ml/L ethanol) and grown until glucose was completely consumed as indicated by the colorimetric change of a Diastix urinalysis reagent strip (Bayer, Elkhart, Ind.). Induction of cloned P450 was initiated by adding DL-galactose to a final concentration of 2%. The cultures were grown for an additional 20 hours before used for in vivo activity assay or for microsome preparation.
WAT11 yeast cells expressing pYeDP60-CYP71D20 (a p450 catalyzing the hydroxylation of 5-epi-aristolochene and 1-deoxycapsidiol in Nicotiana tabacum) were used as control for the p450 expression and enzyme activity assays.
The nicotine demethylase activity in the transformed yeast cells were assayed by feeding of yeast culture with DL-Nicotine (Pyrrolidine-2-^14C). ^14C labeled nicotine (54 mCi/mmol) was added to 75 μl of the galactose-induced culture for a final concentration of 55 μM. […] After spinning, 20 μl of the methanol extract was separated with an rp-HPLC and the nornicotine fraction was quantitated by LSC.

Row | effect on nicotine demethylase activity of D121-AA8 microsomes ([1]; Chlorpromazine 1 mM, incubated for 1 hour) | Molecule | nornicotine produced from the demethylation of nicotine (HPLC and LSC) [1] | conversion of nicotine to nornicotine in yeast culture [2] | Demethylase activity, Microsomes + 100 μM cytochrome C ([1]; yeast microsomes with 100 μM oxidized cytochrome c, n = 3) | Demethylase activity, Microsomes + 1 mM chlorpromazine ([1]; yeast microsomes with 1 mM chlorpromazine, n = 3) | Demethylase activity, Microsomes ([1]; yeast microsomes, 6 mM NADPH, 55 μM 14C labeled nicotine, 25° C., 1 hour, n = 12)
1 | decreased significantly | CN(C)CCCN1c2ccccc2Sc2ccc(Cl)cc21 [Chlorpromazine, reference compound] |  |  |  |  | 
2 |  | B1 | did not show any nornicotine conversion formation |  |  |  | 
3 |  | B2 | did not show any nornicotine conversion formation | did not convert nicotine to nornicotine | Not Detected | Not Detected | Not Detected
